Measurements taken from publication PMC12012759 (Protein Science : A Publication of the Protein Society, 2025).

What was measured:
Experiment in all cases: ELISA
Conditions in all cases: both partners purified
[1] = target: T1, Fc fusion of Severe acute respiratory syndrome coronavirus 2 P0DTC2 (SARS‐CoV‐2 Wuhan, UniProt P0DTC2)
T1 construct: also called RBD‐Fc; RBD

[2] = target: full‐length SARS‐CoV‐2 spike protein (1273 amino acids) (SARS-CoV-2 Wuhan, UniProt P0DTC2)
human serum albumin = human serum albumin (Homo sapiens, UniProt P02768)

Measured: binding result

B1: Clostridioides difficile toxin A‐specific A20.1 VHH (VHH)
VHH: QVQLVESGGGLAQAGGSLRLSCAASGRTFSMDPMAWFRQPPGKEREFVAAGSSTGRTTYYADSVKGRFTISRDNAKNTVYLQMNSLKPEDTAVYYCAAAPYGANWYRDEYAYWGQGTQVTVSS
no binding: all assays above
